Results published in the DeepSol protein solubility set.

Assay: soluble on expression in E. coli; label from the status in PepcDB or PDB records

Sequence | soluble on expression in E. coli
MSFLEKLVAKYEPIKEEKPKLVPKPTRKRQPETTEIVVKTRRITRRNAKAPVKEEEIGHQKAQITIVDDEEFMEQPVQEPIEIEEEQQEESHLEIALPEQPNHEPMQSSPSLPRKSFKPDMHPIAKKGGKICIVDLGLTSHTLPTEQTPGFLKRLGENVGGSIDYSYESIDELIRTAPDAWSKASMGAIRGVMLMQELVTERSMHPKSKPMEKNRLLGEEMAKLNPNDFLNHKLLEVSSLDQTVFINVNLVFSALSIQHGSVRSIVNAMSNHWIDYLIPREQQGSFTTSKKTEPLTFFPGDLTNWPAALLAAAIKLDNDQVDVTRLPSVVNMLFKHHIKVRFDHARGLYRTKHDGQNPPKIVLPKRPIIDCTQFYKSSEDIDEEQVPSTSNFQSSSNSLSTSKSAGREHIPDSP | not soluble
SLVAVIGCCHGELNRLYMEVEKYENEKNEKVDLILCCGDMQTIRDENDLQDMAVKSHRSKKGDFWEYYEGLKKAPKLTIFIGGNHETPNVLIPLYYGGWVAPNIFYLGSSGVIRVGDVRVAGISGIYKNYDHFRGYYESKPFTEESKRSWYHIRWLEIQKLLLIENIKSNFLGSTESRKVDVMISHDWPNGIERFGNLNYLIRRKPYLKEDIELGRLGIPGCIELIEHLRPTFWFSGHHHCFFDASIEFENQLYSSEFRAIDKFKNSNSPVRYFDINSNKNDVRIYLDFEWLTILRSVKANIPKGNFTIDKNSIPKLSGPTKSDIDAIYKNLKEVIGDFDENHYEWPLWGQANGNFKNLQDQYNFINRIIEEG | not soluble
MSLKPESPNQDDFIIITMENLALYAIFDGHGPYGHDVSNYVQKELPYMIIKNENFLKNPKEVFTKAFLNIHENIERTTNAYLDSFTNKNSDSTMSGTTATIIVHLFKEKKLYVAYVGDSRAVLGKRKNGSKQLSAVELTKDHKPNCAAEKKRILSSGGQVMKLEGDIPYRVFIKNKFYPGLAMSRAIGDTIGHQIGIIAEPDFIEVNINEDEDILVLICSDGVWEFISSEEAVNLIYEFGYNNVQDAVENLARESWDRWLNEEENIVDDITIQAIYLSEKSKYLKEGHHHHHH | not soluble
MAFICELDEQWSYVGSKARQHWLGYAYNTKTGGVLAYTFGPRTDQTCRELLALLTPFNIGMLTSDDWGSYGREVPKNKHLTGKIFTQRIERNNLTLRTRIKRLGRKTICFSRSVEIHEKVIGAFIEKHMFY | not soluble
MISDIRKDAEVRMEKCVEAFKTQISKVRTGRASPSLLDGIVVEYYGTPTPLRQLASVTVEDSRTLKINVFDRSMGPAVEKAIMASDLGLNPSSAGTDIRVPLPPLTEERRKDLTKIVRGEAEQARVAVRNVRRDANDKVKALLKDKAISEDDDRRSQEEVQKMTDAAIKKVDAALADKEAELMQF | not soluble
MQVIAFIAPLIDKGMDPLTGVPIRQEVPRLMERTFQENQAETYVLFLINLDRFKLVNDSLGEGYGDQVLQTLVRRLLWQLPNQQWIARVSGDEFIACAAIKGELPKKETLATYISSIIQQPFQVDEVQFTMTASIGAAVYPMDGKSVEMIWNSLERALRHAKARGGNCVSWFCQELKDEWIHPFRLENDLRRAVENQELEHHHHHH | not soluble
MHHHHHHSSGVDLGTENLYFQSMTLESMNPQVKAVEYAVRGPIVLKAGEIELELQRGIKKPFTEVIRANIGDAQAMGQQPITFLRQVMALCTYPNLLDSPSFPEDAKKRARRILQACGGNSLGSYSASQGVNCIREDVAAYITRRDGGVPADPDNIYLTTGASDGISTILKILVSGGGKSRTGVMIPIPQYPLYSAVISELDAIQVNYYLDEENCWALNVNELRRAVQEAKDHCDPKVLCIINPGNPTGQVQSRKCIEDVIHFAWEEKLFLLADEVYQDNVYSPDCRFHSFKKVLYEMGPEYSSNVELASFHSTSKGYMGECGYRGGYMEVINLHPEIKGQLVKLLSVRLCPPVSGQAAMDIVVNPPVAGEESFEQFSREKESVLGNLAKKAKLTEDLFNQVPGIHCNPLQGAMYAFPRIFIPAKAVEAAQAHQMAPDMFYCMKLLEETGICVVPGSGFGQREGTYHFRMTILPPVEKLKTVLQKVKDFHINFLEKYA | soluble
MGHHHHHHSHDQLDRAGVAAVALSGGEPTIHPHFLRIVKELSSRGIHTSVATNGWTFADKEKLEEAVKAGLKYVEISVDSAKPEKHDEFRGIPGAWERAIKALENAVEIGVSHGMAVIMDKETYQEMDDILDLAESIGVKRVIFFNLVPTGRAEDMVKVDLTPEEREEFLKELYHQMKKRKLEILTTAPQYARVTLIESQGKNVSPAHFYVGQNTAVKTLAEFIGGCGAGRIYAGIEPDGTVVPCVFL | not soluble
MRPLLLLALLGWLLLAEAKGDAKPEDNLLVLTVATKETEGFRRFKRSAQFFNYKIQALGLGEDWNVEKGTSAGGGQKVRLLKKALEKHADKEDLVILFTDSYDVLFASGPRELLKKFRQSRSQVVFSAEELIYPDRRLETKYPVVSDGKRFLGSGGFIGYAPNLSKLVAEWEGQDSDSDQLFYTKIFLDPEKREQINITLDHRCRIFQNLDGALDEVVLKFEMGHVRARNLAYDTLPVLIHGNGPTKLQLNYLGNYIPRFWTFETGCTVCDEGLRSLKGIGDEALPTVLVGVFIEQPTPFVSLFFQRLLRLHYPQKHMRLFIHNHEQHHKAQVEEFLAQHGSEYQSVKLVGPEVRMANADARNMGADLCRQDRSCTYYFSVDADVALTEPNSLRLLIQQNKNVIAPLMTRHGRLWSNFWGALSADGYYARSEDYVDIVQGRRVGVWNVPYISNIYLIKGSALRGELQSSDLFHHSKLDPDMAFCANIRQQDVFMFLTNRHTLGHLLSLDSYRTTHLHNDLWEVFSNPEDWKEKYIHQNYTKALAGKLVETPCPDVYWFPIFTEVACDELVEEMEHFGQWSLGNNKDNRIQGGYENVPTIDIHMNQIGFEREWHKFLLEYIAPMTEKLYPGYYTRAQFDLAFVVRYKPDEQPSLMPHHDASTFTINIALNRVGVDYEGGGCRFLRYNCSIRAPRKGWTLMHPGRLTHYHEGLPTTRGTRYIAVSFVDP | not soluble
AKAAGSSIGQQDTLVMLLNFKENPNDQPITSEEAHALVFGEVNDFYQENSYGKTWLSGQVAGWYTLPVSDQVCDYPSVQAEADKMARADGIVLEDYQR | not soluble
MTDYFTAHDVLKKVEGLNSLSTLNKWANFIQKECDYQFHYDYIRFASHTRTKRTINHRKTRMFSLEEIQKFQKVIKLIPILGRNTSLRKLFDKKHHLDTMNHSELLTEIINQIEVKLANKEELFQALTKKYQQLERSYQTLEQRLAQLEESLSTQEQTSSGWFRRKR | not soluble
MSLLNEENNFYNVDLLDLLKDSNEAVLPYKRIRFRRNQKILTEGAETTYFYIIEDGVVSMSKNTCKEDSIISFLGKQDSIGPLTLLGGAKSPANYTSISEVSVYQFERKYVLNKLLSSPDVFWQMNSLMQSMVSPMLEREAYVNLPSSEKVLAGLIACGERFGRIESDGSCLIPYYFTQKILGNYLNLARAYVATNLRKLEEDGVISLSPKPWRVKNFDVHRQKLKDNYKPYI | not soluble
MGSDKIHHHHHHMFIKLNKGLDLPISGEPEQCVYAATAVRHIAVAGVDYIDLKPTMKVTEGDRVRLGQPLFEYKKLPGVVFTAPGAGRIVAINRGTRRILLSVVLQLDEQEDEETFIKYAPDELSNLADEQVKENLLISGLWTTLRTRPYSKVPDPATRPAAIFITAIDSNPLAADPVPIITAEMESFNHGLRILSRLTDGPLWVCQSPQAKLSLPEDLPQLQQARFAGPHPAGLPGTHIHFLQPVSAYKTVWYLNYQEVIAIGKLFVTGRLWTERIVALGGPGVKKPRLLRTRLGASLEELLAGELVESMDKRVISGSVWSGRKAVDELAFLGRHHLQVTVIGEKSEREFLGWLNPGGNKYSKLNVLFSSFFRKKRKFEFTASQQGSPRAMIPIDTFEEVMPLDILPAQLLRALLVMDTDMAQKLGCLELDEEDLALCSFICVGKHDYGVILRENLRQIEKEG | not soluble
MAHHHHHHMCVSVCACARPCSLLISLFEKRQHGWGCCNSFTFEHVCSADAVRCLFFFVCDSPSSSLPPSLFTRHSPLLFSSCPFACPSSVHPQRQDNTRRRAEQPCAQALWIRRGINRIGNLLVPNDNYCWFEDFFTPVLESVQEAQRASRWKTHTAPSEFIEAMGAAIAKNHPDTCTSSLVYWCYRNGISVFSPAFTDGSMGDMIYFYNFSHKGLVVDPLEDVVRLRKLAAKEKGRNLAIVLGGGLPKHHLLRNVSMDAVVMVTTGLEADGCVSSGVLADDVACGLLREETETVRVQGDATVVFPLMLIAEKAATLEGAAA | not soluble
SLGWFKTCSKQEDNDVCVVQNVVLAQNGQMITAVGLITVEGKVNRKLLQVSVPTARLIPPGVMMQIDGGKGQKLDYAVCLPDKCTAEVPLTDAMIASLKKGSEVVFTSINFRRAPNPIKIALSGFTGAYDGAAITQSQLAE | not soluble
MDTESFKREFLPYHRKLYCVAYRLLENAADAEDLVQEAYLKLWDKREGLSVISNPEAFSVTLVKNMCFDLLRSGKYVLSRQSVELSAAQDVFQPDNLEAREGVRQIKDIIAHLPEQQQRIINMRDIKGCSYEEIEQVTGLNSINVRVLLSRARKKIREEFNKWNNYESRRN | not soluble
GSHMLEMRIGHGFDVHAFGGEGPIIIGGVRIPYEKGLLAHSDGDVALHALTDALLGAAALGDIGKLFPDTDPAFKGADSRELLREAWRRIQAKGYTLGNVDVTIIAQAPKMLPHIPQMRVFIAEDLGCHMDDVNVKATTTEKLGFTGRGEGIACEAVALLIKATK | soluble
MNLYIASIKLWFKGFKENTERSITYSFEPNKINVITGDSSTGKSSILDIIDYLLLSDNPTIVENIINENVEFYGMNIFLEERSYILMRKAPHSGQGTQDVYWKEQEEYPMPYIQTHSVGEMRTILTRMFYVPQHETKVGNRKYNMTFRHFLPFNYLTEDIISSANTYFDTAFFINRSYDVFLDYALELVNGIQYHNANEIKAKIEKAEIDLKQYQKKHQIAQENATKYKASLTSIYDDALSLNLIPADNFFVRENAHEMLHYIKEALAAYNKLIKNDEDTKKLELLKKERYELNNKLSIYNSLLAEMQKQKSSGKKIQDSLRPITFIKEHIDEVIISPETIELLHLLEKQLVQIKESRKEKPKLPHDFALRHEELKDKLKACESKLKELTILRKTIANPKWLERAIGLKYRLENLKRPKEDTYQASTEQNMISLIESLKIEQKNMSLLPHDVKEKLNSYINKYFHSINGIVDSYPDSTMRYDDDERRISLLNNGEDYPVRNIGSKSNYMFLHLCFFLGLHESIMFHRSKHVGSFLFIDQPSMPYYADKGTLDNDDKKQLIKAFRLLNEFMEEIIGNQNRSFQMILIEHADESYWKELEYFHTTATFSKIAQGGLIPKYIYE | not soluble
MSGIWGNNLKVSIFGESHGNAIGINIDGLPSGIELDLDKIDKEMKRRAPGKNSISTSRNESDIPEILSGYFNGRTTGTPLCAIIRNSDTRSKDYGELKNLMRPGHADFTGNVRYSGFNDYRGGGHFSGRITAPLVFCGAICKQILSQKGIEIGAHIKKIKNIEDMSFDYVNISKQQLSNLQTLELPLLDLSKEEAMKNTIIDAKNQGDSVGGIIECAVVGINVGLGNPFFDSVESTLSHLLFSVPAVKGVEFGLGFELADMYGSQSNDEMYYEGNQVKSKTNNNGGIIGGITTGMPIIFKVAIKPTPSISRQQNTVNIKDKKDDILYIKGRHDPCIVQRAIPVIEAVTAIGIFDLMKGR | not soluble
MAELACFCYPHLENDSYKFIPFNNLAIKAMLTAKVDKKDMDKFYDSIIYGIAPPPQFKKRYNTNDNSRGMNFETIMFTKVAMLICEALNSLKVTQANVSNVLSRVVSIRHLENLVIRKENPQDILFHSKDLLLKSTLIAIGQSKEIETTITAEGGEIVFQNAAFTMWKLTYLEHQLMPILDQNFIEYKVTLNEDKPISDVHVKELVAELRWQYNKFAVITHGKGHYRIVKYSSVANHADRVYATFKSNVKTGVNNDFNLLDQRIIWQNWYAFTSSMKQGNTLDVCKRLLFQKMKPEKNPFKGLSTDRKMDEVSQVGV | soluble
